Values quoted from earlier work as cited in publication PMC10611464.
Read-outs that look alike come from different tables or passages of the source.

Key:
[1] = target: PACAP (Homo sapiens) (UniProt P18509)
[2] = target: VIP (Homo sapiens) (UniProt P01282)
[3] = target: PACAP (Homo sapiens) (UniProt P18509); remark: listed apart in the source
[4] = target: PACAP (Homo sapiens) (UniProt P18509); remark: listed apart in the source
[5] = target: VIP (Homo sapiens) (UniProt P01282); remark: listed apart in the source

UniProt P18509, sequence (P18509 82-129): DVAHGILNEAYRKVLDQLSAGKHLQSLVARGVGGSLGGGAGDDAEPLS
UniProt P01282, sequence (P01282 125-152): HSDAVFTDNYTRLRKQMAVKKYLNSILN

PAC1 (from UniProt P41586)
Kd [1]: 0.5 nM

VPAC1 (from UniProt P32241)
Kd [2]: 1 nM | Kd [3]: 1 nM

VPAC2 (from UniProt P41587)
Kd [4]: 1 nM | Kd [5]: 1 nM
